The values below come from PMC9620997 (Gut Microbes, 2022).

This experiment addresses T1, 6xHis-tagged TssI2 (purified) (Vibrio fluvialis 85003, UniProt A0A1W6EUI3 1-1012).
T1 sequence: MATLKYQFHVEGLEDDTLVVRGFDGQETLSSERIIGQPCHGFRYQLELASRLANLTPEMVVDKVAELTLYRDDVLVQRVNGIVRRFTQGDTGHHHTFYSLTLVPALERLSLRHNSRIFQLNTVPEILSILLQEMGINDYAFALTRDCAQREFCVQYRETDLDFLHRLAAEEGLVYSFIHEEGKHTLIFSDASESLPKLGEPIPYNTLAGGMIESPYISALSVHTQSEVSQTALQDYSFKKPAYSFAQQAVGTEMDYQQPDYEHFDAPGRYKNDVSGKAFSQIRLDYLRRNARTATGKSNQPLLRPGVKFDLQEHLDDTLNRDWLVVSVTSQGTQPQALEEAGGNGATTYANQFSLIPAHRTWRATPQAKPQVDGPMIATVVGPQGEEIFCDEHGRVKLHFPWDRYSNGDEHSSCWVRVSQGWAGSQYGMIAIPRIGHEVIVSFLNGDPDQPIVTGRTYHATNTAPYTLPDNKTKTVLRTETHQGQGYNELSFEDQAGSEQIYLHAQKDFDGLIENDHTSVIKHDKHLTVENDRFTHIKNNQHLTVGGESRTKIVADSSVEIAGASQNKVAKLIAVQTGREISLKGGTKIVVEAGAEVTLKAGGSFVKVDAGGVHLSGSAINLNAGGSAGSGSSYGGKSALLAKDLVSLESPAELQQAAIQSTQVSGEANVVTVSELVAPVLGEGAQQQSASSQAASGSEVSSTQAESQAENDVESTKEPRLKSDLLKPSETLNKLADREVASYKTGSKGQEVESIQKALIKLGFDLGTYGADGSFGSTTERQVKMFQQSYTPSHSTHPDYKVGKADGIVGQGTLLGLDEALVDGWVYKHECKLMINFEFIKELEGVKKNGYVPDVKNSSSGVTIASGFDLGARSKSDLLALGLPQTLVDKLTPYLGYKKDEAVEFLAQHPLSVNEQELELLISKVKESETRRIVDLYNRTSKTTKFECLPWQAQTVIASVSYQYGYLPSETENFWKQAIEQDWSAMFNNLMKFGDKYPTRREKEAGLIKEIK
Nature of the experiment: ITC. Background: ITC needs no label: the signal is the heat of the interaction.

B1: 6xHis-tagged TsiI2^19-127 (purified) (domain or fragment)
chain: FPTNEVYAYLDITSFNSSLIQKAARGQKHFSDLKIPNPVISKDTILIESEYWKYEMQFVKEDDSGIHVCFVDKAKWGTYDTQTPMIIRKYADEYVAIKMNSDVCEDFAK
What is called Kd is a measure of binding affinity in units of concentration. A low value points to higher affinity. Regarding B1, the affinity, expressed as Kd, was 1.07 nM. This lies in the single-digit nanomolar range.
